The text below walks through data of the supplement of paper PMC10567573.

The chains are these.
B1: SNAP91 (parent)
chain: FAAPSPATTASPAKVDSSGVIDLF
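Note: lentivirally expressed fusions sorted by FACS into six bins by GFP to DsRed ratio, PSI derived from sequencing read proportions per bin multiplied by bin number.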

The variants in the data set derive from B1. Put plainly: protein stability index of a GFP-peptide fusion (GPS, HEK-293T) (PSI 1-6); higher = more stable. The following applies: c terminus: a fixed tail appended.
In the case of FAAPSPATTASPAKVDSSGVMDLF, the protein stability index was determined as 3.15.

Consider FAAPSPATTASPAKVDSSGVGDLF, for which the protein stability index was determined as 3.64.

Turning to FAAPSPATTASPAKVDSSGVDDLF, the protein stability index was 3.96.

On to FAAPSPATTASPAKVDSSGVCDLF, for which the protein stability index stood at 2.63.

Take FAAPSPATTAVPAKVDSSGVIDLF: the protein stability index came out at 2.38.

Take FAAPSPATTANPAKVDSSGVIDLF: the protein stability index is 2.38.

FAAPSPATTAAPAKVDSSGVIDLF: the protein stability index was found to be 2.47.

Consider FAAPSPATTAGPAKVDSSGVIDLF, for which the protein stability index amounted to 2.45.

With FEAPSPATTASPAKVDSSGVIDLF, the protein stability index was 4.29.

For the variant FAAPSPATTASPAKVDSSGVIDVF, the protein stability index was 2.83.

Take FAAPSPATTASPAKVDSSGVIDDF: the protein stability index amounted to 4.69.

For the variant FAAPSPATTASPAKVDSSGVIDPF, the protein stability index stood at 3.74.

In the case of FAAPSPATTASPAKVDSSGVIDIF, the protein stability index turned out to be 2.51.

FAAPSPYTTASPAKVDSSGVIDLF: the protein stability index was 2.54.

Turning to FAAPSPITTASPAKVDSSGVIDLF, the protein stability index was 2.1.

As to FAAPSPRTTASPAKVDSSGVIDLF, the protein stability index was 2.36.

Regarding FAAPSPPTTASPAKVDSSGVIDLF, the protein stability index is 2.62.

Consider FAAPSPETTASPAKVDSSGVIDLF, for which the protein stability index was 3.06.

For the variant FAAPSPGTTASPAKVDSSGVIDLF, the protein stability index was 2.85.

Consider FAAPSPFTTASPAKVDSSGVIDLF, for which the protein stability index amounted to 2.65.

As to FAAPSPATTASPAKVMSSGVIDLF, the protein stability index is 1.92.

As to FAAPSPATTASPAKVASSGVIDLF, the protein stability index came to 1.9.

Regarding FAAPSPATTASPAKVNSSGVIDLF, the protein stability index worked out at 2.53.

Turning to FAAPSPATTASPAKVVSSGVIDLF, the protein stability index was 2.3.

Take FAAPSPATTASPAKWDSSGVIDLF: the protein stability index is 2.1.

Consider FAAPSPATTASPAKVDSSGYIDLF, for which the protein stability index is 2.07.

As for FAAPSPATTASPAKVDSSGLIDLF, the protein stability index worked out at 2.57.

On to FAAPSPATTASPAKVDSSGFIDLF, for which the protein stability index turned out to be 1.56.

For the variant FAAPSPATTASPAHVDSSGVIDLF, the protein stability index was determined as 2.46.

In the case of FAAPSPATTASPAFVDSSGVIDLF, the protein stability index worked out at 1.86.

FAAPSPATTASPAAVDSSGVIDLF: the protein stability index stood at 2.94.

FAAPSPATTASPARVDSSGVIDLF: the protein stability index is 2.28.

Consider FAAPSPATTASPAWVDSSGVIDLF, for which the protein stability index turned out to be 1.58.

As for FAAPSPATTASPAKVDESGVIDLF, the protein stability index was 2.45.

Turning to FAAPSPATTASPAKVDNSGVIDLF, the protein stability index was determined as 2.78.

As to FAAPSPATTASPAKVDASGVIDLF, the protein stability index amounted to 2.55.

For FAAPSPATTASPAKVDTSGVIDLF, the protein stability index was 2.43.

With FAAPSPATTSSPAKVDSSGVIDLF, the protein stability index worked out at 2.32.

On to FAAPSPATTWSPAKVDSSGVIDLF, for which the protein stability index was determined as 2.84.

In the case of FAAPSPATTFSPAKVDSSGVIDLF, the protein stability index came out at 1.92.

FAAPSPADTASPAKVDSSGVIDLF: the protein stability index came to 2.65.

In the case of FAAPSPAETASPAKVDSSGVIDLF, the protein stability index came to 2.23.

With FAAPSPAITASPAKVDSSGVIDLF, the protein stability index worked out at 2.85.

As to FAAPSPALTASPAKVDSSGVIDLF, the protein stability index was determined as 2.27.

Regarding FAAPSPAHTASPAKVDSSGVIDLF, the protein stability index turned out to be 3.12.

On to FAAPSPAGTASPAKVDSSGVIDLF, for which the protein stability index was found to be 2.3.

Regarding FAANSPATTASPAKVDSSGVIDLF, the protein stability index worked out at 2.43.

Turning to FAAYSPATTASPAKVDSSGVIDLF, the protein stability index is 1.38.

Turning to FAAPSPATTASPAKVDSLGVIDLF, the protein stability index was 2.23.

Turning to FAAPSPATTASPAKVDSWGVIDLF, the protein stability index came to 1.37.

With FAAPSPATTASPAKVDSRGVIDLF, the protein stability index worked out at 2.11.

With FAAPSPATTASPAKVDSYGVIDLF, the protein stability index came to 1.66.

As to FAAPSPATTASPAKVDSVGVIDLF, the protein stability index is 2.1.

In the case of FAAPSPATTASPAKVDSAGVIDLF, the protein stability index turned out to be 2.29.

Take FAAPSPATTASPNKVDSSGVIDLF: the protein stability index amounted to 2.38.

On to FAAPSPATTASPMKVDSSGVIDLF, for which the protein stability index turned out to be 2.31.

Consider FAAPSPATTASPEKVDSSGVIDLF, for which the protein stability index was 2.61.

For the variant FAAPSPATTASVAKVDSSGVIDLF, the protein stability index stood at 2.09.

On to FAAPSPATTASSAKVDSSGVIDLF, for which the protein stability index came to 2.32.

FAAPSPATTASCAKVDSSGVIDLF: the protein stability index is 1.85.

FAAPSPATTASQAKVDSSGVIDLF: the protein stability index was 2.6.

For the variant FAAPSPATTASPAKVDSSGVIDLI, the protein stability index worked out at 3.34.

As for FAAPSPATTASPAKVDSSGVIDLG, the protein stability index was 4.35.

Take FAAPSPATTASPAKVDSSGVIDLK: the protein stability index was 4.2.

As for FAAPSPATTASPAKVDSSGVIDLL, the protein stability index was determined as 3.13.

As to FAAPSPATEASPAKVDSSGVIDLF, the protein stability index is 2.77.

For FAAPSPATMASPAKVDSSGVIDLF, the protein stability index was determined as 2.31.

Consider FAAPSPATRASPAKVDSSGVIDLF, for which the protein stability index came to 2.42.

In the case of FAAPSPATVASPAKVDSSGVIDLF, the protein stability index turned out to be 2.61.

For FAAPSPATTASPAKVDSSGVIYLF, the protein stability index turned out to be 2.04.

Consider FAAPSPATTASPAKVDSSGVIELF, for which the protein stability index came out at 2.46.

With FAAPSPATTASPAKVDSSGVIHLF, the protein stability index came out at 1.94.

Take FAAPSEATTASPAKVDSSGVIDLF: the protein stability index turned out to be 3.08.

As for FAAPSVATTASPAKVDSSGVIDLF, the protein stability index is 1.82.

For FAAPSAATTASPAKVDSSGVIDLF, the protein stability index was 2.18.

On to FAAPSYATTASPAKVDSSGVIDLF, for which the protein stability index is 1.7.

In the case of FAAPSIATTASPAKVDSSGVIDLF, the protein stability index amounted to 1.84.

Take FAAPSTATTASPAKVDSSGVIDLF: the protein stability index was found to be 2.23.

Consider FAWPSPATTASPAKVDSSGVIDLF, for which the protein stability index stood at 2.09.

Turning to FALPSPATTASPAKVDSSGVIDLF, the protein stability index turned out to be 2.33.

FAKPSPATTASPAKVDSSGVIDLF: the protein stability index came to 2.38.

With FARPSPATTASPAKVDSSGVIDLF, the protein stability index was 2.12.

As for HAAPSPATTASPAKVDSSGVIDLF, the protein stability index came to 3.86.

Turning to EAAPSPATTASPAKVDSSGVIDLF, the protein stability index came out at 4.39.

Regarding IAAPSPATTASPAKVDSSGVIDLF, the protein stability index amounted to 3.47.

For LAAPSPATTASPAKVDSSGVIDLF, the protein stability index was determined as 3.4.

As for RAAPSPATTASPAKVDSSGVIDLF, the protein stability index was 2.94.

With WAAPSPATTASPAKVDSSGVIDLF, the protein stability index was 3.01.

On to FAAPSPATTASPAKVDSSCVIDLF, for which the protein stability index is 1.83.

On to FAAPSPATTASPAKVDSSDVIDLF, for which the protein stability index was found to be 2.94.

In the case of FAAPSPATTASPAKVDSSYVIDLF, the protein stability index turned out to be 1.58.

As to FAAPAPATTASPAKVDSSGVIDLF, the protein stability index turned out to be 2.51.

For FAAPYPATTASPAKVDSSGVIDLF, the protein stability index was 1.96.

On to FAAPEPATTASPAKVDSSGVIDLF, for which the protein stability index is 3.18.
